Measurements from patent US7678386B2, “Liposomes coated with selected antibodies that bind to aminophospholipids” (Board of Regents the University of Texas, priority 2002, dated 2010).
Values joined by “and” are separate entries in the source; they are usually repeats but may differ in a detail not shown here. Equal entries are not always repeated.

Experiment: Monoclonal single chain antibody ELISA on PS plate
Assay type: binding
Settings: supernatants of individual subclones, 10% human serum
Description: Individual HB2151 colonies from the plates (after 4 rounds of selection) were inoculated into 500 μl 2×TY containing 100 μg/ml ampicillin and 1% glucose in 96-well plates and grown with shaking (300 rpm.) overnight at 37° C. 5 μl from this plate were transferred to a second 96-well plate containing 500 μl 2×TY containing 100 μg/ml ampicillin per well and grown shaking at 37° C. for 3 hr (OD600=0.9).
To each well was added 50 μl 2×TY containing 100 μg/ml ampicillin, 10 mM IPTG (final concentration is 1 mM), which was grown with shaking overnight at 30° C. It was centrifuged at 1,800 g for 10 min and 100 μl of the supernatant used in the following ELISA.
96 well plates (DYNEX IMMULON®1B) were coated with PS dissolved in ethanol at a concentration of 10 μg/ml (P6641 10 mg/ml solvent was Chloroform:MeOH 95:5). 10 μg/ml PC was coated in the same way. These plates were evaporated at 4° C. in the cold room. 250 μl 2.5% casein was added to each well, and the plates were covered and blocked at 37° C. for 1 hour.
Wells were rinsed 3 times with PBS, 100 μl/well 10% human serum and 100 μl/well supernatant containing soluble scFv was added and incubated for 60 min at 37° C. The solution was discarded and washed 6 times with PBS. […] 100 μl 0.18 M H2SO4 was added to stop the reaction and read at O.D. 490.

B1: 3A2: scFv anti-PS clone; sequences SEQ ID NO:5 and SEQ ID NO:6 (protein)
scFv: AQPAMAEVQLVESGGGVVQPGRSLRLSCAASGFTFSSYGMHWVRQAPGKGLEWVAVISYDGSNKYYADSVKGRFTISRDNSKNTLYLQMNSLRAEDTAVYYCARLHAQTWGQGTLVTVSSGGGGSGGGGSGGSALQSVLTQPPSVSAAPGQKVTISCSGSSSDMGNYAVSWYQQLPGTAPKLLIYENNKRPSGIPDRFSGSKSGTSATLGITGLWPEDEADYYCLAWDTSPRNVFGGGTKLTVLGAAAHHHHHHGAAEQKL
Which “ELISA on PS Plate (O.D. 490)” value does the source give for B1 here?
The value was 0.126 and 0.118 (2×) and 0.131 (2×) and 0.125 and 0.115 and 0.127 and 0.150 and 0.117 and 0.112 and 0.121 and 0.123 and 0.114 and 0.116 and 0.132.
